Experimental data from article PMC5986797, “Laminin heparin-binding peptides bind to several growth factors and enhance diabetic wound healing” (Nature Communications, 2018).

Experiments:
[1] = biological target: laminin peptide LAMA3_(3043–3067) (human) (UniProt Q16787)
[2] = biological target: laminin peptide LAMA5_(3417–3436) (human) (UniProt O15230)
[3] = biological target: recombinant human laminin-521 (human) (UniProt O15230); assay: SPR; laminin-521 immobilised by amine coupling on a C1 chip (~2000 RU); GF flown at 20 μL/min in 0.01 M HEPES pH 7.4, 0.15 M NaCl, 0.005% surfactant P20; Langmuir binding kinetics
[4] = biological target: recombinant laminin LAMA3_(2928–3150) protein (human) (UniProt Q16787); assay: SPR; LAMA3 2928–3150 immobilised by amine coupling on a C1 chip (~1000 RU); GF flown at 20 μL/min in 0.01 M HEPES pH 7.4, 0.15 M NaCl, 0.005% surfactant P20; Langmuir binding kinetics
Chain of recombinant laminin LAMA3_(2928–3150) protein (human) (Q16787 2928-3150): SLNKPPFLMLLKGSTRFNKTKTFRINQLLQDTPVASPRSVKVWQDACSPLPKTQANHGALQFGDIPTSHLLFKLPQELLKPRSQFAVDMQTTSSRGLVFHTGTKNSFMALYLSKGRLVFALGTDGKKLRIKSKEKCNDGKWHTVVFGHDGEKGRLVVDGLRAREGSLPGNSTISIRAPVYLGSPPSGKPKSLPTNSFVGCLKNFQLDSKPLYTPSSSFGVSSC

Chain of laminin peptide LAMA3_(3043–3067) (human) (Q16787 3043-3067): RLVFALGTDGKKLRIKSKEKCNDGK
Chain of laminin peptide LAMA5_(3417–3436) (human) (O15230 3417-3436): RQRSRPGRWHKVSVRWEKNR

- cumulative release of VEGF-A165 after 5 days from a fibrin matrix with covalently incorporated α2PI1–8-LAMA3 (3043–3067) (without peptide >85% released after 24 h) [1]: 25%
- cumulative release of VEGF-A165 after 5 days from a fibrin matrix with covalently incorporated α2PI1–8-LAMA5 (3417–3436) (without peptide >85% released after 24 h) [2]: 31%
- Kd [3]: 5.8 nM
- Kd [4]: 1.2 nM
Substance: vascular endothelial cell growth factor VEGF-A165 (ligand)
